Patent publication US20230035659A1, “Compositions and Methods for TTR Gene Editing and Treating ATTR Amyloidosis Comprising a Corticosteroid or Use Thereof” (Intellia Therapeutics, Inc., priority 2019, published 2023)
Strand notation (5' to 3'): a small letter for the sugar, then the base; units joined by * are phosphorothioate-linked, units joined directly phosphodiester-linked; [ ] holds rarer units or linkages, { } end groups; capitals alone tell only the bases. m = 2'-O-methyl; r = 2'-OH (RNA)

B1: G000568: TTR sgRNA modified sequence, Human, SEQ ID NO: 110; guide sequence of CR003391 (nucleic acid)
guide: mG*mG*mC*rUrGrUrCrGrUrCrArCrCrArArUrCrCrCrArGrUrUrUrUrArGrAmGmCmUmAmGmAmAmAmUmAmGmCrArArGrUrUrArArArArUrArArGrGrCrUrArGrUrCrCrGrUrUrArUrCrAmAmCmUmUmGmAmAmAmAmAmGmUmGmGmCmAmCmCmGmAmGmUmCmGmGmUmGmCmU*mU*mU*mU
B2: G000567: TTR sgRNA modified sequence, Human, SEQ ID NO: 109; guide sequence of CR003352 (nucleic acid)
guide: mG*mA*mA*rArGrGrCrUrGrCrUrGrArUrGrArCrArCrCrGrUrUrUrUrArGrAmGmCmUmAmGmAmAmAmUmAmGmCrArArGrUrUrArArArArUrArArGrGrCrUrArGrUrCrCrGrUrUrArUrCrAmAmCmUmUmGmAmAmAmAmAmGmUmGmGmCmAmCmCmGmAmGmUmCmGmGmUmGmCmU*mU*mU*mU
B3: G000481: TTR sgRNA modified sequence, Human, SEQ ID NO: 88; guide sequence of CR003345 (nucleic acid)
guide: UCUAGAACUUUGACCAUCAGGUUUUAGAGCUAGAAAUAGCAAGUUAAAAUAAGGCUAGUCCGUUAUCAACUUGAAAAAGUGGCACCGAGUCGGUGCUUUU
modifications: sugars from the 5' end m3 r25 m12 r28 m32, backbone not given here; further chemistry not fully specified
B4: G000572: TTR sgRNA modified sequence, Human, SEQ ID NO: 113; guide sequence of CR003385 (nucleic acid)
guide: mC*mC*mC*rCrUrArCrUrCrCrUrArUrUrCrCrArCrCrArGrUrUrUrUrArGrAmGmCmUmAmGmAmAmAmUmAmGmCrArArGrUrUrArArArArUrArArGrGrCrUrArGrUrCrCrGrUrUrArUrCrAmAmCmUmUmGmAmAmAmAmAmGmUmGmGmCmAmCmCmGmAmGmUmCmGmGmUmGmCmU*mU*mU*mU

What follows are molecules tested on TTR (assay: TTR editing in primary human hepatocytes treated with LNP formulated Spy Cas9 mRNA (SEQ ID NO: 2) and sgRNAs, 12.5 ng mRNA). Conditions: LNP formulated Spy Cas9 mRNA (SEQ ID NO: 2) and sgRNA, 12.5 ng mRNA, 3.9 nM sgRNA, 72 hours.
Assay type: cell-based
Procedure: Primary liver hepatocytes. Primary human liver hepatocytes (PHH) and primary cynomolgus liver hepatocytes (PCH) (Gibco) were cultured per the manufacturer's protocol (Invitrogen, protocol 11.28.2012). In brief, the cells were thawed and resuspended in hepatocyte thawing medium with supplements (Gibco, Cat. CM7000) followed by centrifugation at 100 g for 10 minutes for human and 80 g for 4 minutes for cyno. The supernatant was discarded and the pelleted cells resuspended in hepatocyte plating medium plus supplement pack (Invitrogen, Cat. A1217601 and CM3000). Cells were counted and plated on Bio-coat collagen I coated 96-well plates (ThermoFisher, Cat. 877272) at a density of 33,000 cells/well for human or 60,000 cells/well for cyno (or 65,000 cells/well when assaying effects on TTR protein, described further below). Plated cells were allowed to settle and adhere for 6 or 24 hours in a tissue culture incubator at 37° C. and 5% CO2 atmosphere. After incubation cells were checked for monolayer formation and media was replaced with hepatocyte culture medium with serum-free supplement pack (Invitrogen, Cat. A1217601 and CM4000).
In general, the lipid nanoparticle components were dissolved in 100% ethanol with the lipid component of various molar ratios. The RNA cargos were dissolved in 25 mM citrate, 100 mM NaCl, pH 5.0, resulting in a concentration of RNA cargo of approximately 0.45 mg/mL. The LNPs were formulated with a lipid amine to RNA phosphate (N:P) molar ratio of about 4.5 or about 6, with the ratio of mRNA to gRNA at 1:1 by weight.
The LNPs were formed by microfluidic mixing of the lipid and RNA solutions using a Precision Nanosystems NanoAssemblr™ Benchtop Instrument, according to the manufacturer's protocol. A 2:1 ratio of aqueous to organic solvent was maintained during mixing using differential flow rates. After mixing, the LNPs were collected, diluted in water (approximately 1:1 v/v), held for 1 hour at room temperature, and further diluted with water (approximately 1:1 v/v) before final buffer exchange. The final buffer exchange into 50 mM Tris, 45 mM NaCl, 5% (w/v) sucrose, pH 7.5 (TSS) was completed with PD-10 desalting columns (GE). If required, formulations were concentrated by centrifugation with Amicon 100 kDa centrifugal filters (Millipore). The resulting mixture was then filtered using a 0.2 μm sterile filter. The final LNP was stored at −80° C. until further use.
Additional PCR was performed per the manufacturer's protocols (Illumina) to add chemistry for sequencing. The amplicons were sequenced on an Illumina MiSeq instrument. The reads were aligned to a reference genome (e.g., the human reference genome (hg38), the cynomologus reference genome (mf5), the rat reference genome (rn6), or the mouse reference genome (mm10)) after eliminating those having low quality scores. The resulting files containing the reads were mapped to the reference genome (BAM files), where reads that overlapped the target region of interest were selected and the number of wild type reads versus the number of reads which contain an insertion, substitution, or deletion was calculated.
The editing percentage (e.g., the “editing efficiency” or “percent editing” or “indel frequency”) is defined as the total number of sequence reads with insertions/deletions (“indels”) or substitutions over the total number of sequence reads, including wild type.
Lipid nanoparticle formulations of modified sgRNAs targeting human TTR and the cyno matched sgRNA sequences were tested on primary human hepatocytes and primary cyno hepatocytes in a dose response curve. Primary human and cyno hepatocytes were plated as described in Example 1. Both cell lines were incubated at 37° C., 5% CO2 for 24 hours prior to treatment with LNPs. The LNPs used in the experiments detailed in Tables 18-21 were prepared using the Nanoassemblr™ procedure, each containing the specified sgRNA and Cas9 mRNA (SEQ ID NO:2), each having Lipid. […]

Compared with B1, B2 is lower in “12.5 ng mRNA, 3.9 nM sgRNA, Avg % Edit” value: 54.60% for the first, 48.95% for the second.

Compared with B3, B4 is higher in “12.5 ng mRNA, 3.9 nM sgRNA, Avg % Edit” value: 24.37% for the first, 55.45% for the second.

These molecules were tested on TTR (assay: TTR editing dose response (EC50, maximum editing) in primary cyno hepatocytes treated with LNP formulated U-depleted Spy Cas9 mRNA and sgRNAs). Conditions: LNP formulated U-depleted Spy Cas9 mRNA and human specific sgRNAs.
Assay type: cell-based, cynomolgus monkey
Summary of the method: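 Primary cyno hepatocytes, 24 h after plating, treated with LNPs (Cas9 mRNA plus sgRNA) preincubated 5 min in medium with 6% cyno serum; 8-point 3-fold doses from 300 ng mRNA. Lysed at 72 h; indel/substitution percentage by amplicon NGS, giving EC50 and maximum editing.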

Going from B1 to B2, the “Max Editing” value rises from 87.93% to 97.06%.

Compared with B3, B4 is higher in “Max Editing” value: 95.07% for the first, 100.31% for the second.
